According to US7879571B2, “Population based assessments and means to rank the relative immunogenicity of proteins” (Danisco US Inc., priority 2003, dated 2011):
“Also recorded” adds a separate entry of the source.

Key:
[1] = system: CD4+ T-cells; test: I-MUNE assay: CD4+ T-cell proliferation with dendritic cells and 15-mer peptides offset by 3 amino acids, community donors; conditions: for Background % / Structure Value / Response/Peptide: Table 3; for Response/Peptide: donors with SI>2.95 per peptide; for Background +/- sd / Responses/peptide found: Table 5
Description: Peptides were resuspended in DMSO at approximately 1 to 2 mg/ml, and stored at −70° C. prior to use. Each peptide was tested at least in duplicate, although for small peptide sets (e.g., Ber e 1), the peptides were routinely tested in triplicate.
Volunteer donor human blood buffy coat samples were obtained from two commercial sources (Stanford Blood Center, Palo Alto, Calif., and the Sacramento Medical Foundation, Sacramento, Calif.). Buffy coat samples were further purified by density separation. Each sample was HLA typed for HLA-DR and HLA-DQ using a commercial PCR-based kit (Bio-Synthesis).
Monocytes were purified by adherence to plastic in AIM V medium (Gibco/Life Technologies). Adherent cells were cultured in AIM V media containing 500 units/ml of recombinant human IL-4 (Endogen) and 800 units/ml recombinant human GM-CSF (Endogen) for 5 days. On day 5, recombinant human IL-1α (Endogen) and recombinant human TNF-α (Endogen) were added to 50 units/ml and 0.2 units/ml, respectively. On day 7, the fully matured dendritic cells were treated with 50 ug/ml mitomycin C (Sigma) for 1 hour at 37° C. Treated dendritic cells were dislodged with 50 mM EDTA in PBS, washed in AIM V medium, counted, and resuspended in AIM V media at 2×10^5 cells/ml.
CD4^+ T-cells were purified by negative selection from frozen aliquots of human peripheral blood mononuclear cells (PBMC) using Cellect CD4 columns (Cedarlane). CD4^+ T-cell populations were routinely >80% pure and >95% viable as judged by trypan blue (Sigma) exclusion. CD4^+ T-cells were resuspended in AIM V media at 2×10^6 cells per ml.
CD4^+ T-cells and dendritic cells were plated in round-bottomed 96 well format plates at 100 ul of each cell mix per well. Peptide was added to a final concentration of approximately 5 ug/ml in 0.25-0.5% DMSO. Control wells contained 0.5% DMSO without added peptide. Each peptide was tested in duplicate. Cultures were incubated at 37° C., in 5% CO2 for 5 days. On day 5, 0.5 uCi of tritiated thymidine (NEN DuPont,) was added to each well. On day 6, the cultures were harvested onto glass fiber mats using a TomTec manual harvester (TomTec), then processed for scintillation counting. Proliferation was assessed by determining the average counts per minute (CPM) value for each set of duplicate wells (TriLux Beta).
For each individual buffy coat sample, the average CPM values for all of the peptides were analyzed. The average CPM values for each peptide were divided by the average CPM value for the control (DMSO only) wells to determine the “stimulation index” (SI). Donors were tested with each peptide set until an average of at least two responses per peptide were compiled. The data for each protein was graphed showing the percent responders to each peptide within the set. A positive response was collated if the SI value was equal to or greater than 2.95. This value was chosen as it approximates a difference of three standard deviations in a normal population distribution. For each protein assessed, positive responses to individual peptides by individual donors were compiled. To determine the background response for a given protein, the percent responders for each peptide in the set were averaged and a standard deviation was calculated. SI values for each donor were compiled for each peptide set, and the percent of responders reported.

[2] = system: 18 different HLA-DR and -DQ proteins; test: HLA class II peptide binding competition assay, panel of 18 alleles; set-up: species or system human; conditions: good binders: IC50 less than 500 nM
Description: FIG. 17 provides a table showing the IC50 binding values for epitope peptides identified in bacterial proteases by the I-MUNE® assay system of the present invention. Values less than 500 nM are considered to be good binders and are highlighted in bold in the Table. Degeneracy indicates the number of HLA class II proteins that bind with an IC50 of less than 500 nM out of the 18 total alleles tested.
In addition to the above I-MUNE® assay, peptide binding assays were also performed. The peptide binding assay used during the development of the present invention is known in the art (Southwood et al., J. Immunol., 160:3363-3373 [1998]). Briefly, HLA-DR and -DQ molecules were purified from a panel of EBV transformed cell lines. A competition assay was performed with a characterized standard peptide, and the unknown peptide. The amount of unknown peptide required to compete 50% of the standard peptide binding was then determined (indicated as the IC50).
The IC50 for HLA class II protein binding was determined for peptide epitopes defined by the in two related industrial bacterial proteases (See, FIG. 17). The peptides were tested in a competition assay for binding to 18 different HLA-DR and -DQ proteins. […] This likely explains the association seen in the data for a response to this peptide with HLA-DR6(13) donors (p=0.00015; relative risk=7.22, n=113 donors tested). […]

[3] = system: PBMC; test: Maximum proliferative response of PBMC from 30 community donors to inactivated whole protein; type: cell-based, human; conditions: inactivated enzymes, 5 to 40 ug/ml, 30 donors; p<0.01; listed as protease variant
Description: FIG. 9 provides a graph showing the maximum proliferative responses of PBMC from 30 community donors to BPN′ Y217L (open triangles, structure value=0.53) and the […] BPN′ Y217L variant (closed squares, structure value=0.40). Each donor's maximum response is shown on the y-axis. An SI of 2.0 was the cut-off for a “positive” response. The difference in proliferative responses between BPN′ Y217L and the variant was p<0.01.
In these experiments, PMBC from thirty community donors were tested parametrically with either the whole protein parent enzyme (BPN′ Y217L) or the variant protease. The enzymes were inactivated, and tested over a dose range from 5 to 40 ug/ml. […] The difference between optimal SI values for the two proteins tested on these thirty donors was significant, with a two-tailed parametric t-test value of p<0.01.

In the case of E7 16: HPV E7 protein, HPV strain 16, the Background % [1] is reported as 4.33%, the “Structure Value” [1] is reported as 0.66 and the Response/Peptide [1] is reported as 3.9.

In the case of “BPN' Y217L #24: 15-mer epitope peptide number 24 of BPN′ Y217L, first epitope (amino acids 70-84) (GTVAALNNSIGVLGV; UniProt P00782 177-191, looked up, fragment)”, the “HLA class II binding (in words)” value [2] is reported as “binds most HLA class II molecules tested”.

“hTpo: human thrombopoietin, a cytokine whose expression is restricted to the bone marrow” was tested, and the “Structure value in words” value [1] was “comparatively high” and the “Background +/- sd” value [1] was 2.54 +/− 2.23.

In the case of E7 18: HPV E7 protein, HPV strain 18, the Background % [1] is reported as 3.55%, the “Structure Value” [1] is reported as 0.44 and the Response/Peptide [1] is reported as 3.19.

In the case of “E6 18: human papillomavirus E6 protein, HPV strain 18”, the “Background response in words (compared with the 11 industrial enzymes)” value [1] is reported as “not significantly different”, the Background % [1] is reported as 4.23% and the “Structure Value” [1] is reported as 0.79. The Response/Peptide [1] was 2.32, the “Background +/- sd” value [1] was 4.23 +/− 4.25 and the Responses/peptide found [1] was 2.32.

With “BPN' Y217L#37: 15-mer epitope peptide number 37 of BPN′ Y217L, second epitope (amino acids 109-123) (NGIEWAIANNMDVIN; UniProt P00782 216-230, looked up, fragment)” the “HLA class II binding (in words)” value [2] was “promiscuous”.

B1: ALCALASE ®: ALCALASE® enzyme, commercially available from Novo; Swissprot accession number P00780 (protein, UniProt P00780 106-379, looked up)
Subtilisin Carlsberg: AQTVPYGIPLIKADKVQAQGFKGANVKVAVLDTGIQASHPDLNVVGGASFVAGEAYNTDGNGHGTHVAGTVAALDNTTGVLGVAPSVSLYAVKVLNSSGSGSYSGIVSGIEWATTNGMDVINMSLGGASGSTAMKQAVDNAYAKGVVVVAAAGNSGSSGNTNTIGYPAKYDSVIAVGAVDSNSNRASFSSVGAELEVMAPGAGVYSTYPTNTYATLNGTSMASPHVAGAAALILSKHPNLSASQVRNRLSSTATYLGSSFYYGKGLINVEAAAQ
In the case of B1, the “Prominent responses (amino acids / peptide positions)” value ([1]; regions of the protein sequence) is reported as 19-33.

B2: E7 31: HPV E7 protein, HPV strain 31 (protein, UniProt P17387 1-98, looked up)
Protein E7: MRGETPTLQDYVLDLQPEATDLHCYEQLPDSSDEEDVIDSPAGQAEPDTSNYNIVTFCCQCKSTLRLCVQSTQVDIRILQELLMGSFGIVCPNCSTRL
B2 was tested, and the Background % [1] was 5.26%, the “Structure Value” [1] was 0.78 and the Response/Peptide [1] was 3.1.

B3: sTNFR1: soluble tumor necrosis factor receptor 1, a soluble recombinant cytokine receptor molecule (protein, UniProt P19438 30-211, looked up)
extracellular domain: LVPHLGDREKRDSVCPQGKYIHPQNNSICCTKCHKGTYLYNDCPGPGQDTDCRECESGSFTASENHLRHCLSCSKCRKEMGQVEISSCTVDRDTVCGCRKNQYRHYWSENLFQCFNCSLCLNGTVHLSCQEKQNTVCTCHAGFFLRENECVSCSNCKKSLECTKLCLPQIENVKGTEDSGTT
modifications: extracellular domain
B3 was tested, and the “Background +/- sd” value [1] was 2.23 +/− 1.95.

B4: E6 33: human papillomavirus E6 protein, HPV strain 33 (protein, UniProt P06427 1-149, looked up)
Protein E6: MFQDTEEKPRTLHDLCQALETTIHNIELQCVECKKPLQRSEVYDFAFADLTVVYREGNPFGICKLCLRFLSKISEYRHYNYSVYGNTLEQTVKKPLNEILIRCIICQRPLCPQEKKRHVDLNKRFHNISGRWAGRCAACWRSRRRETAL
With B4 the Background % [1] was 2.83%, the “Structure Value” [1] was 0.68 and the Response/Peptide [1] was 1.97.

B5: E6 16: human papillomavirus E6 protein, HPV strain 16 (protein, UniProt P03126 1-158, looked up)
Protein E6: MHQKRTAMFQDPQERPRKLPQLCTELQTTIHDIILECVYCKQQLLRREVYDFAFRDLCIVYRDGNPYAVCDKCLKFYSKISEYRHYCYSLYGTTLEQQYNKPLCDLLIRCINCQKPLCPEEKQRHLDKKQRFHNIRGRWTGRCMSCCRSSRTRRETQL
In the case of B5, the “Background response in words (compared with the 11 industrial enzymes)” value [1] is reported as “significantly higher”, the Background % [1] is reported as 7.12% and the “Structure Value” [1] is reported as 0.72. The Response/Peptide [1] was 3.92, the “Background +/- sd” value [1] was 7.12 +/− 6.48 and the Responses/peptide found [1] was 3.92.

B6: E7 45: HPV E7 protein, HPV strain 45 (protein, UniProt P21736 1-106, looked up)
Protein E7: MHGPRETLQEIVLHLEPQNELDPVDLLCYEQLSESEEENDEADGVSHAQLPARRAEPQRHKILCVCCKCDGRIELTVESSAEDLRTLQQLFLSTLSFVCPWCATNQ
For B6, the Background % [1] was 3.75%, the “Structure Value” [1] was 0.76 and the Response/Peptide [1] was 2.44.

B7: E7 33: HPV E7 protein, HPV strain 33 (protein, UniProt P06429 1-97, looked up)
Protein E7: MRGHKPTLKEYVLDLYPEPTDLYCYEQLSDSSDEDEGLDRPDGQAQPATADYYIVTCCHTCNTTVRLCVNSTASDLRTIQQLLMGTVNIVCPTCAQQ
With B7 the Background % [1] was 4.32%, the “Structure Value” [1] was 0.54 and the Response/Peptide [1] was 2.55.

B8: BPN′ variant: BPN′ Y217L variant where prominent responses to amino acids 70-84 and 109-123 were reduced to background level (protein, UniProt P00782 108-382, looked up, variant Y217L)
Subtilisin BPN': AQSVPYGVSQIKAPALHSQGYTGSNVKVAVIDSGIDSSHPDLKVAGGASMVPSETNPFQDNNSHGTHVAGTVAALNNSIGVLGVAPSASLYAVKVLGADGSGQYSWIINGIEWAIANNMDVINMSLGGPSGSAALKAAVDKAVASGVVVVAAAGNEGTSGSSSTVGYPGKYPSVIAVGAVDSSNQRASFSSVGPELDVMAPGVSIQSTLPGNKYGALNGTSMASPHVAGAAALILSKHPNWTNTQVRSSLENTTTKLGDSFYYGKGLINVQAAAQ
In the case of B8, the “Proliferation compared with the parent protein (in words)” value [3] is reported as “significantly less proliferation; also recorded: induced less proliferation”, the “Prominent Epitope” value ([1]; Table 4, number of prominent epitopes) is reported as 0 and the “Structure value of variant” value ([1]; calculated from the 113-donor dataset with responses to 70-84 and 109-123 reduced to background levels) is reported as 0.40.

B9: E6 31: human papillomavirus E6 protein, HPV strain 31 (protein, UniProt P17386 1-149, looked up)
Protein E6: MFKNPAERPRKLHELSSALEIPYDELRLNCVYCKGQLTETEVLDFAFTDLTIVYRDDTPHGVCTKCLRFYSKVSEFRWYRYSVYGTTLEKLTNKGICDLLIRCITCQRPLCPEEKQRHLDKKKRFHNIGGRWTGRCIACWRRPRTETQV
For B9, the Background % [1] was 4.66%, the “Structure Value” [1] was 0.53 and the Response/Peptide [1] was 3.26.
